The values below come from article PMC5313200.

In the experiment the target is mitochondrial antiviral signaling protein (MAVS), from pCMV-FLAG-MAVS (UniProt Q8VCF0). Nature of the experiment: co-immunoprecipitation with quantitative western blot. The settings on record: 293T cells co-transfected with MAVS and viperin mutant; at least 3 independent experiments; parent: est. 100; read off a plot.

As for “viperin (Virus Inhibitory Protein, Endoplasmic Reticulum-associated, interferon-inducible), wild type, from pcDNA3.1-viperin (from UniProt Q8CBB9) N85A”, the percent of parent came out at 100 % WT. The result for “viperin (Virus Inhibitory Protein, Endoplasmic Reticulum-associated, interferon-inducible), wild type, from pcDNA3.1-viperin (from UniProt Q8CBB9) C84A” reads 93 % WT; that for “viperin (Virus Inhibitory Protein, Endoplasmic Reticulum-associated, interferon-inducible), wild type, from pcDNA3.1-viperin (from UniProt Q8CBB9) H93A”, 90 % WT; that for “viperin (Virus Inhibitory Protein, Endoplasmic Reticulum-associated, interferon-inducible), wild type, from pcDNA3.1-viperin (from UniProt Q8CBB9) N77A”, 83 % WT. The same measure for “viperin (Virus Inhibitory Protein, Endoplasmic Reticulum-associated, interferon-inducible), wild type, from pcDNA3.1-viperin (from UniProt Q8CBB9) H79A”: 140 % WT; for “viperin (Virus Inhibitory Protein, Endoplasmic Reticulum-associated, interferon-inducible), wild type, from pcDNA3.1-viperin (from UniProt Q8CBB9) K96A”: 81 % WT. With “viperin (Virus Inhibitory Protein, Endoplasmic Reticulum-associated, interferon-inducible), wild type, from pcDNA3.1-viperin (from UniProt Q8CBB9) Y86A”, the percent of parent came to 120 % WT.

With “viperin (Virus Inhibitory Protein, Endoplasmic Reticulum-associated, interferon-inducible), wild type, from pcDNA3.1-viperin (from UniProt Q8CBB9) T94A”, the percent of parent stood at 30 % WT. The result for “viperin (Virus Inhibitory Protein, Endoplasmic Reticulum-associated, interferon-inducible), wild type, from pcDNA3.1-viperin (from UniProt Q8CBB9) P73A” reads 220 % WT. The same measure for “viperin (Virus Inhibitory Protein, Endoplasmic Reticulum-associated, interferon-inducible), wild type, from pcDNA3.1-viperin (from UniProt Q8CBB9) K120A”: 12 % WT. The same measure for “viperin (Virus Inhibitory Protein, Endoplasmic Reticulum-associated, interferon-inducible), wild type, from pcDNA3.1-viperin (from UniProt Q8CBB9) R82A”: 66 % WT; for “viperin (Virus Inhibitory Protein, Endoplasmic Reticulum-associated, interferon-inducible), wild type, from pcDNA3.1-viperin (from UniProt Q8CBB9) F90A”: 160 % WT; for “viperin (Virus Inhibitory Protein, Endoplasmic Reticulum-associated, interferon-inducible), wild type, from pcDNA3.1-viperin (from UniProt Q8CBB9) S75A”: 57 % WT.

On to “viperin (Virus Inhibitory Protein, Endoplasmic Reticulum-associated, interferon-inducible), wild type, from pcDNA3.1-viperin (from UniProt Q8CBB9) T81A”, for which the percent of parent came out at 240 % WT. The same measure for “viperin (Virus Inhibitory Protein, Endoplasmic Reticulum-associated, interferon-inducible), wild type, from pcDNA3.1-viperin (from UniProt Q8CBB9) G117A”: 20 % WT; for “viperin (Virus Inhibitory Protein, Endoplasmic Reticulum-associated, interferon-inducible), wild type, from pcDNA3.1-viperin (from UniProt Q8CBB9) T97A”: 45 % WT.
